Test in all cases: radioligand binding
In experiment [1] the target is HLA-DR DRB5*0101 (human (endogenous in EBV transformed cell lines)).
Experiment [2] has as its target HLA-DR DRB1*1302 (human (endogenous in EBV transformed cell lines)).
Experiment [3] addresses HLA-DR DRB1*0101 (human (endogenous in EBV transformed cell lines)).
The target in experiment [4] is HLA-DR DRB4*0101 (human (endogenous in EBV transformed cell lines)).
Experiment [5] deals with HLA-DR DRB1*0802 (human (endogenous in EBV transformed cell lines)).
Experiment [6] has as its target HLA-DR DRB1*0701 (human (endogenous in EBV transformed cell lines)).
Experiment [7] deals with HLA-DR DRB1*0901 (human (endogenous in EBV transformed cell lines)).
Experiment [8] deals with HLA-DR DRB1*0405 (human (endogenous in EBV transformed cell lines)).
In experiment [9] the target is HLA-DR DRB1*1501 (human (endogenous in EBV transformed cell lines)).
The target of experiment [10] is HLA-DR DRB1*0404 (human (endogenous in EBV transformed cell lines)).
Experiment [11] deals with HLA-DR DRB1*0401 (human (endogenous in EBV transformed cell lines)).
For experiment [12], the target named is HLA-DR DRB1*1101 (human (endogenous in EBV transformed cell lines)).
For experiment [13], the target named is HLA-DR DRB3*0101 (human (endogenous in EBV transformed cell lines)).
Experiment [14] has as its target HLA-DR DRB1*0301 (human (endogenous in EBV transformed cell lines)).

Turning to DENV3 Envelope 41-55 (peptide), the half-inhibitory concentration (IC50) came to 684 nM in experiment [1]; 27.2 nM in experiment [2]; 2.33 nM in experiment [3]; 6.51 nM in [4]; 5.08 nM in experiment [5]; 3.13 nM in experiment [6]. Besides, the half-maximal inhibitory concentration (IC50) in experiment [7] was 132 nM.
As to DENV3 Envelope 126-140 (peptide), the half-maximal inhibitory concentration (IC50) is 89.7 nM in experiment [8]; 980 nM in experiment [3]; 21.5 nM in [9]; 59.1 nM in experiment [4]; 37.1 nM in experiment [5].
As to DENV3 Envelope 156-170 (peptide), the IC50 was 45.5 nM in [8]; 444 nM in [10]; 463 nM in experiment [3]; 707 nM in experiment [4]; 7.66 nM in [11].
DENV3 Envelope 161-175 (peptide): the IC50 in [2] stood at 68.3 nM; in [8], 691 nM; in [11], 115 nM; in experiment [5] it was 62.9 nM; in [6] it was 509 nM.
For DENV3 Envelope 346-360 (peptide), the half-inhibitory concentration (IC50) was found to be 14.5 nM in [2]; 4.5 nM in [3]; 332 nM in experiment [9]; 343 nM in [11]; 288 nM in experiment [5]; 67.6 nM in experiment [6].
For the substance DENV3 Envelope 396-410 (peptide), the IC50 in experiment [1] amounted to 26.8 nM; in experiment [12] it was 38.9 nM; in [3], 4.89 nM; in [13] it was 424 nM; in [9] it was 258 nM; in experiment [14], 424 nM. In addition, the values for the half-inhibitory concentration (IC50) in [5], in experiment [6] and in experiment [7] were 106 nM, 296 nM and 39.9 nM, respectively.
In the case of DENV3 NS1 85-99 (peptide), the 50% inhibitory concentration (IC50) came to 483 nM in [2]; 807 nM in experiment [12]; 55.8 nM in [3]; 21.2 nM in experiment [9]; 87.7 nM in experiment [11]; 533 nM in experiment [14]. The IC50 in experiment [6] came out at 70.1 nM; in experiment [7], 41.9 nM.
As to DENV3 NS1 117-131 (peptide), the half-inhibitory concentration (IC50) in [8] turned out to be 285 nM; in experiment [10] it was 695 nM; in [13], 534 nM; in [11] it was 28.1 nM; in experiment [5], 56.3 nM.
DENV3 NS1 169-183 (peptide): the IC50 in experiment [8] was determined as 277 nM; in [10], 457 nM; in [3], 226 nM; in experiment [13], 747 nM; in [9] it was 441 nM; in experiment [4], 878 nM. Besides, the IC50 in experiment [11] was 474 nM; in experiment [6] it was 136 nM; in experiment [7] it was 650 nM.
Turning to DENV3 NS1 173-187 (peptide), the IC50 in experiment [1] amounted to 753 nM; in experiment [12] it was 651 nM; in experiment [3] it was 25.9 nM; in [13], 57.5 nM; in [11] it was 502 nM; in experiment [14], 787 nM. In addition, in experiment [7], the IC50 came out at 608 nM.
Take DENV3 NS1 225-239 (peptide): the IC50 turned out to be 58.9 nM in [2] and 322 nM in [11].
Take DENV3 NS3 61-75 (peptide): the IC50 in experiment [1] came to 143 nM; in experiment [2], 84.5 nM.
With DENV3 NS3 101-115 (peptide), the IC50 was found to be 725 nM in [8], 201 nM in experiment [3] and 447 nM in experiment [9].
DENV3 NS3 185-199 (peptide): the 50% inhibitory concentration (IC50) in experiment [8] turned out to be 972 nM; in experiment [12] it was 71.8 nM; in [4] it was 7.64 nM; in experiment [11] it was 171 nM; in [14], 870 nM; in [5], 21 nM.
In the case of DENV3 NS3 237-251 (peptide), the IC50 in experiment [1] was found to be 12.9 nM; in experiment [8], 150 nM; in experiment [12] it was 807 nM; in experiment [10] it was 310 nM; in [9] it was 638 nM; in [11], 13.1 nM. In addition, the IC50 was 35.8 nM in experiment [5] and 928 nM in [7].
Take DENV3 NS3 277-291 (peptide): the IC50 in experiment [2] came out at 68.2 nM; in experiment [8], 402 nM; in experiment [3] it was 383 nM; in experiment [13], 4.42 nM; in experiment [11], 142 nM; in [14] it was 37.3 nM. Also, the IC50 in experiment [5] was determined as 396 nM.
In the case of DENV3 NS3 297-311 (peptide), the IC50 was found to be 90 nM in [8]; 35.3 nM in experiment [12]; 127 nM in experiment [10]; 16.4 nM in experiment [11]; 77.2 nM in experiment [6].
In the case of DENV3 NS3 309-323 (peptide), the IC50 in experiment [8] came out at 32.1 nM; in [10], 350 nM; in experiment [3], 27 nM; in experiment [9] it was 363 nM; in [4], 9.15 nM; in [11], 2.36 nM. The IC50 was 30.8 nM in experiment [5], 47.8 nM in experiment [6] and 129 nM in experiment [7].
For DENV3 NS3 353-367 (peptide), the IC50 in experiment [8] came to 884 nM; in experiment [10] it was 858 nM; in experiment [6] it was 87.4 nM.
Regarding DENV3 NS3 433-447 (peptide), the values for the IC50 in [2], in experiment [13] and in experiment [14] were 23.7 nM, 134 nM and 68.6 nM, respectively.
On to DENV3 NS5 193-209 (peptide), for which the concentration for half-maximal inhibition (IC50) in experiment [2] was determined as 15.1 nM; in [3], 87.5 nM; in experiment [9], 199 nM; in [6], 144 nM.
Turning to DENV3 NS5 233-248 (peptide), the IC50 in experiment [1] is 413 nM; in experiment [2] it was 34 nM; in experiment [8] it was 699 nM; in experiment [12] it was 15.9 nM; in experiment [3] it was 108 nM; in experiment [9] it was 307 nM. Also, the IC50 in [4] is 617 nM; in [11], 57 nM; in experiment [5], 159 nM.
As to DENV3 NS5 477-493 (peptide), the IC50 in experiment [1] was 56.2 nM; in experiment [8], 54.4 nM; in experiment [10], 124 nM; in experiment [3], 11.7 nM; in [13] it was 25.9 nM; in experiment [4], 274 nM. For the same substance, the 50% inhibitory concentration (IC50) in [11] was 67.1 nM; in experiment [6] it was 26.2 nM; in [7], 78.7 nM.
In the case of DENV3 NS5 489-505 (peptide), the IC50 in experiment [1] is 936 nM; in experiment [8], 236 nM; in experiment [3] it was 231 nM; in experiment [13] it was 387 nM; in experiment [14] it was 118 nM.
Take DENV3 NS5 523-539 (peptide): the IC50 in experiment [12] was 170 nM; in experiment [3] it was 733 nM; in [13] it was 44.8 nM; in experiment [4], 445 nM; in experiment [11], 7.25 nM; in [14], 9.29 nM.
Regarding DENV3 NS5 558-574 (peptide), the half-inhibitory concentration (IC50) came out at 391 nM in experiment [1]; 667 nM in experiment [8]; 173 nM in experiment [12]; 401 nM in [9]; 586 nM in experiment [14]; 134 nM in experiment [6].
Regarding DENV3 NS5 564-580 (peptide), the IC50 was found to be 305 nM in experiment [1]; 11.3 nM in experiment [2]; 344 nM in experiment [12]; 18.8 nM in [3]; 576 nM in [13]; 28 nM in [9]. Moreover, the figures for the IC50 in experiment [11], in experiment [14] and in [7] were 390 nM, 222 nM and 100 nM, respectively.
Consider DENV3 NS5 576-592 (peptide), for which the figures for the IC50 in [2] and in experiment [4] were 297 nM and 108 nM, respectively.
Consider DENV3 NS5 714-729 (peptide), for which the half-maximal inhibitory concentration (IC50) worked out at 245 nM in experiment [1]; 10.6 nM in experiment [2]; 671 nM in experiment [12]; 66.3 nM in [9]; 36.8 nM in experiment [14]; 690 nM in [7].
Turning to DENV3 NS5 719-735 (peptide), the IC50 in experiment [2] stood at 229 nM; in experiment [8] it was 22.5 nM; in experiment [10], 190 nM; in [3], 214 nM; in [14], 44.1 nM.
DENV3 NS5 747-763 (peptide): the IC50 came out at 38.6 nM in experiment [8]; 111 nM in [10]; 53.7 nM in [3]; 167 nM in experiment [9]; 393 nM in experiment [7].
With DENV3 NS5 765-779 (peptide), the IC50 in experiment [1] was 726 nM; in experiment [2], 4.92 nM; in [3], 40.8 nM; in experiment [13], 127 nM; in experiment [9], 118 nM; in [5] it was 7.85 nM. In [7], this substance displayed an IC50 of 61.2 nM.
Take DENV3 NS5 769-785 (peptide): the IC50 in experiment [1] stood at 113 nM; in [2], 4.5 nM; in experiment [8], 15.9 nM; in experiment [12], 78.7 nM; in [10] it was 92.6 nM; in experiment [3], 27.9 nM. For the same substance, the 50% inhibitory concentration (IC50) came out at 212 nM in [4]; 3.61 nM in experiment [11]; 409 nM in experiment [14]; 27.6 nM in [5]; 61.2 nM in [7].
For the substance DENV3 NS5 866-882 (peptide), the half-inhibitory concentration (IC50) in [2] stood at 543 nM; in experiment [12], 421 nM; in experiment [9], 148 nM; in experiment [14], 178 nM; in [5], 7.14 nM; in experiment [7] it was 66.1 nM.

One may read the IC50 as the point on the concentration scale where inhibition reaches its midpoint. Read a high IC50 as lower potency.
